Ends that are not written are not given here.
Experiments:
[1] = target: corticotropin releasing factor 1 receptor; assay: cell-based or functional assay
[2] = target: T1, corticotropin releasing factor 2 receptor; assay: cell-based or functional assay
T1 sequence (Q13324 whole entry, species assumed, looked up): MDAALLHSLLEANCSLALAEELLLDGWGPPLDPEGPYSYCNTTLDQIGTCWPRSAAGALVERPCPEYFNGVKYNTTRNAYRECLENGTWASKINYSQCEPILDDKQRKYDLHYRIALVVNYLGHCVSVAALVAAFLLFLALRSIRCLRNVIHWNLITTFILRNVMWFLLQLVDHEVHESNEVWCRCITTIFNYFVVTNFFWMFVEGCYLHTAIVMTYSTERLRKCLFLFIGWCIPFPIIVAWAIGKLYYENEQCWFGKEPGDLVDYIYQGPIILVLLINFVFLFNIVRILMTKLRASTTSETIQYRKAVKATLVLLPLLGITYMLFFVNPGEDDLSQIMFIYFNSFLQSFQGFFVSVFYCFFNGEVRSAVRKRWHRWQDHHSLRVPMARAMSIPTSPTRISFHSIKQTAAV

| Binder | CRF1R EC50 [1] | CRF1R Emax % [1] | CRF2R EC50 [2] | CRF2R Emax % [2] |
| --- | --- | --- | --- | --- |
| IVLSLDVPIGLLQILLEQARARAAREQATTNARILARV (ends and bridges not checked) [human urocortin II fragment] | > 100 nM | 9% | 3.64 nM | 98% |
| SQEPPISLDLTFHLLREVLEMTKADQLAQQAHSNRKLLDIA (ends and bridges not checked) [ovine corticotropin releasing factor fragment] | 27.4 nM | 98% | > 100 nM | 33% |

Reference: US20030148956A1 (PROCTER AND GAMBLE, published 2003)
